This note sets out measurements from paper PMC2867299 (The Journal of Cell Biology, 2010).

The target in this experiment is T1, GST-Myo4p-L-GT (Myo4p linker and globular tail, from residue 1042) (S. cerevisiae, UniProt P32492 1042-1471).
T1 sequence: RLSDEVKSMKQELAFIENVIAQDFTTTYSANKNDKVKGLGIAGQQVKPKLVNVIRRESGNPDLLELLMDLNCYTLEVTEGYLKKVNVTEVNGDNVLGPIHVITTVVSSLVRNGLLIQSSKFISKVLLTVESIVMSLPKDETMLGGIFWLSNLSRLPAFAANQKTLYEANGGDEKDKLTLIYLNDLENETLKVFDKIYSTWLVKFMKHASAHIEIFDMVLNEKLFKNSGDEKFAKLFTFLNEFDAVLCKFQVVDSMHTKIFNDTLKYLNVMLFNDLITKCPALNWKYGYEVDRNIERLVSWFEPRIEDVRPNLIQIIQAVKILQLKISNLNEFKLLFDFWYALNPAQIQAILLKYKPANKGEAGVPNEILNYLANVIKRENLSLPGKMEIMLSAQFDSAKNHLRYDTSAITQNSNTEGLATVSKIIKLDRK
The experiment in a line: pull-down.

B1: His-She3p-N (N-terminal half of She3p, aa 1-234) (domain or fragment)
chain: MSDQDNTQTSSSKLAPHHNIFMANLESSPTKDRNTSSQNASSSRVIESLHDQIDMLTKTNLQLTTQSQNLLSKLELAQSKESKLLENLNLLKNENENLNSIFERKNKKLKELEKDYSELSNRYNEQKEKMDQLSKLAKNSSAIEQSCSEKLQNMEVNYNSLLESQNLYRDHYSDEISKLNEKIGLLELELSNQNLNYGSDTSSNSDIELNLNKFNDSVKDLKSLETEKDSKLSK
B1: the binding result is listed as “binds”.
